T1: macaca IL6R-his protein (macaca mulatta)
T1 chain: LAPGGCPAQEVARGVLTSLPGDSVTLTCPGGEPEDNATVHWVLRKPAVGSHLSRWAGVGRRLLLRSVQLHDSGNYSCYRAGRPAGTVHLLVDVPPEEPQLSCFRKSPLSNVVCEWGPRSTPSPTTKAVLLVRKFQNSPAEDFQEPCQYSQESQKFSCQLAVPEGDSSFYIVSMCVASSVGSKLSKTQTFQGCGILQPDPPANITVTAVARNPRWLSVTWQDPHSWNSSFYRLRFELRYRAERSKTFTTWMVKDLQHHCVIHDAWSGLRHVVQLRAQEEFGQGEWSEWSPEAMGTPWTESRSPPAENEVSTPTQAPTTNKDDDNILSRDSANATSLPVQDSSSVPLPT

T2: recombinant human IL6R-his (human, UniProt P08887 20-365)
T2 construct: In house made; the entry includes the C-terminal His tag; also called human IL6R-his protein
T2 sequence: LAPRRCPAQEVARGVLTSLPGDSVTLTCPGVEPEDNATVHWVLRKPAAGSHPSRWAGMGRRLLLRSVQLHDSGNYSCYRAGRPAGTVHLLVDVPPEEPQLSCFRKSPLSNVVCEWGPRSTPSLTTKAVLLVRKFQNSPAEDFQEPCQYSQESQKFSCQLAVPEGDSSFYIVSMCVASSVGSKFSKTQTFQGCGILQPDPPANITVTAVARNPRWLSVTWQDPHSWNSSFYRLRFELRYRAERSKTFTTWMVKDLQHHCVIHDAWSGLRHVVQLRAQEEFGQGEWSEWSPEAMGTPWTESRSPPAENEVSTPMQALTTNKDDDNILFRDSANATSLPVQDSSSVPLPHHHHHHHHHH


Key:
[1] = molecular target: T3, human IL6R-Fc protein (human, biotin-labeled in the ELISAs (sites not given)); test: capture ELISA: antibody captured on anti-IgG F(ab')2 coated plate, then biotin-labeled human IL6R-Fc, streptavidin-HRP
T3 construct: In house made; also called biotin-labeled human IL6R-Fc protein
Experimental: For the capture ELISA, 96-well micro plates were coated with 2 μg/ml AffiniPure Goat Anti-Mouse IgG, F(ab′)₂ fragment specific (Jackson ImmunoResearch Laboratories, Inc., Cat #115-005-072) in PBS, 100 μl/well, and incubated for 2 hours at 37° C. Plates were washed once with wash buffer (PBS+0.05% v/v Tween-20, PBST) and then blocked with 200 μl/well blocking buffer (5% w/v non-fatty milk in PBST) overnight at 4° C. […] Plates containing captured anti-IL6R antibodies were incubated with biotin-labeled human IL6R-Fc protein (prepared in house, SEQ ID NO: 43, 39.5 ng/ml in 2.5% w/v non-fatty milk in PBST, 100 μl/well) for 40 minutes at 37° C., washed 4 times, and incubated with streptavidin conjugated HRP (1:10000 dilution in PBST, Jackson ImmunoResearch Laboratories, Inc., Cat #016-030-084, 100 μl/well) for 40 minutes at 37° C. After a final wash, plates were incubated with 100 μl/well ELISA substrate TMB (InnoReagents, Cat #TMB-S-002). The reaction was stopped 3-10 minutes later at room temperature with 50 μl/well 1M H₂SO₄, and the absorbance of each well was read on a microplate reader using dual wavelength mode at 450 nm for TMB and 630 nm as the reference wavelength. Then the OD (450-630) values were plotted against antibody concentration. Data was analyzed using Graphpad Prism software and EC₅₀ values were reported.
Target sequence in this assay (chain, as listed by the source limits assumed): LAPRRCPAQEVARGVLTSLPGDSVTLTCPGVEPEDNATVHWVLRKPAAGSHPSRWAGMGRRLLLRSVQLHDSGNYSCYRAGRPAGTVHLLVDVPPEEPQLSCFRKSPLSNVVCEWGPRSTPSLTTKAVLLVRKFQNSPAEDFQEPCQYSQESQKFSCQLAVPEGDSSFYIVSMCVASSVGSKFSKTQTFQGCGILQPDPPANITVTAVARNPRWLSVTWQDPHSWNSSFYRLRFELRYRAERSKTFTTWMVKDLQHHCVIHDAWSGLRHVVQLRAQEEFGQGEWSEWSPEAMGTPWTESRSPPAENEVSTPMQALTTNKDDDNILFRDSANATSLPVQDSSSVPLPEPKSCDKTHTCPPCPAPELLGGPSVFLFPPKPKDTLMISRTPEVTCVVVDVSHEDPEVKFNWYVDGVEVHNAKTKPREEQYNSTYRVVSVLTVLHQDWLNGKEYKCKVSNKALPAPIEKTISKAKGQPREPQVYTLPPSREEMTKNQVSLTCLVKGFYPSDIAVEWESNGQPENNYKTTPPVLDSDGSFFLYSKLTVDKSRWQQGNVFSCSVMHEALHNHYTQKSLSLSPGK

[2] = molecular target: T1, macaca IL6R-his protein; test: SPR Biacore T200; mAb captured by anti-mouse IgG on CM5, antigen in flow, 1:1 fit
Experimental: (§1) Un-reacted moieties on the biosensor surface were blocked with ethanolamine. […] Then, serially diluted recombinant human IL6R-his (in house made, amino acid sequence set forth in SEQ ID NO: 44) or macaca IL6R-his protein (in house made, amino acid sequence set forth in SEQ ID NO: 45), starting at 100 nM with a 2-fold serial dilution in HBS-EP⁺ buffer (provided by Biacore), was flowed onto the chip at a flow rate of 30 μL/min. The antigen-antibody association kinetics was followed for 2 minutes and the dissociation kinetics was followed for 10 minutes. The association and dissociation curves were fit to a 1:1 Langmuir binding model using BIAcore evaluation software.

[3] = molecular target: T2, recombinant human IL6R-his; test: as above
Experimental: as §1

[4] = molecular target: T3, human IL6R-Fc protein; test: benchmark blocking ELISA: antibody pre-incubated with biotin-labeled human IL6R-Fc, added to plate-coated Tocilizumab (competitor: Tocilizumab)
Experimental: ELISA plates were washed once with wash buffer (PBS+0.05% v/v Tween-20, PBST) and then blocked with 200 μl/well blocking buffer (5% w/v non-fatty milk in PBST) overnight at 4° C.
The next day, the anti-IL6R antibodies of the disclosure or controls were diluted with biotin labeled human IL6R-Fc protein (SEQ ID NO: 43, 13.6 ng/ml in 2.5% w/v non-fatty milk in PBST), starting at 100 nM with a 5-fold serial dilution, and incubated at room temperature for 40 minutes. […] After incubation at 37° C. for 40 minutes, plates were washed 4 times using wash buffer. Then streptavidin conjugated HRP was added, and the plates were incubated for 40 minutes at 37° C. The plates were finally washed using wash buffer, and added with TMB. The reaction was stopped using 1M […], and the absorbance was read on a microplate reader using dual wavelength mode with 450 nm for TMB and 630 nm as the reference wavelength. The OD (450-630) values were plotted against antibody concentration. Data was analyzed using Graphpad Prism software and IC₅₀ values were reported.

[5] = molecular target: T3, human IL6R-Fc protein; test: ligand blocking ELISA: antibody pre-incubated with biotin-labeled human IL6R-Fc, added to plate-coated human IL6 (blocked ligand: human IL6)
Experimental: The next day, anti-IL6R antibodies or controls were diluted with biotin labeled human IL6R-Fc protein (prepared in house, SEQ ID NO: 43, 39.5 ng/ml in 2.5% w/v non-fatty milk in PBST), starting at 100 nM with a 4-fold serial dilution, and incubated at room temperature for 40 minutes. […] Plates were washed for 4 times using wash buffer, and added and incubated with 100 μl/well of streptavidin conjugated HRP (1:10000 dilution in PBST buffer, Jackson ImmunoResearch Laboratories, Inc., Cat #016-030-084) for 40 minutes at 37° C. Plates were washed again using wash buffer. Finally, TMB was added and the reaction was stopped using 1M H₂SO₄. The absorbance was read on a microplate reader using dual wavelength mode with 450 nm for TMB and 630 nm as the reference wavelength, and then the OD (450-630) values were plotted against antibody concentration. Data was analyzed using Graphpad Prism software and IC₅₀ values were reported.

Binder	EC50 [1]	Kd [2]	koff [2]	kon [2]	Kd [3]	koff [3]	kon [3]	IC50 [4]	IC50 [5]
mouse anti-IL6R monoclonal antibody 1F7 (antibody, V domains shown, Mouse hybridoma mAb) VH: QVQLQQPGAELVKPGASVKLSCKASDYTFTSYWMHWVKQRPGQGLEWIGEINPSNGRTNYNEKFKNKATLTVDKSSSTAYVQLYSLTSEDSAVYYCARLSIHYVFDYWGQGTTLTVSS VL: ELVLTQSPTTMAASPGEKITFTCSASSSISSNYLHWYQQKPGFSPKLLISGTSNLASGVPPRFSGSGSGTSYSLTIVTMEAEDVATYYCQQGSGIPFTFGSGTKLEIK	0.0593 nM	0.523 nM	6.46e-05 s⁻¹	124000 M⁻¹ s⁻¹	0.537 nM	7.46e-05 s⁻¹	139000 M⁻¹ s⁻¹	–	–
Tocilizumab (antibody, human IgG1, kappa, V domains shown, In house made; also called benchmark; Actemra) VH: QVQLQESGPGLVRPSQTLSLTCTVSGYSITSDHAWSWVRQPPGRGLEWIGYISYSGITTYNPSLKSRVTMLRDTSKNQFSLRLSSVTAADTAVYYCARSLARTTAMDYWGQGSLVTVSS VL: DIQMTQSPSSLSASVGDRVTITCRASQDISSYLNWYQQKPGKAPKLLIYYTSRLHSGVPSRFSGSGSGTDFTFTISSLQPEDIATYYCQQGNTLPYTFGQGTKVEIKR	–	–	–	–	–	–	–	1.58 nM	2.51 nM
mouse anti-IL6R monoclonal antibody 1H7 (antibody, V domains shown, Mouse hybridoma mAb) VH: QVQLQQPGTELVKPGASVKLSCKASGYTFTNYWMHWVKQRPGQGLDWIGEINPTNGRTNYNENFKSKATLTVDKSSSTAYMQLSSLTSEDSAVYYCARLNTHYVFDSWGQGTTLTLSS VL: EIVLTQSPTTLAASPGEKITFTCSVSSSISSNYLHWYQQKPGFSPKLLISRTSTLASGVPARFSGSGSGTSYSLTIGTMEAEDVATYYCQQGSGIPFTFGSGTKLELK	0.0436 nM	0.229 nM	3.14e-05 s⁻¹	137000 M⁻¹ s⁻¹	0.308 nM	4.73e-05 s⁻¹	153000 M⁻¹ s⁻¹	0.105 nM	–
mouse anti-IL6R monoclonal antibody 1H9 (antibody, V domains shown, Mouse hybridoma mAb) VH: QVQLQQPGAELVKPGASVKLSCKASGYTFTSYWMHWVKLRPGQGLEWIGEINPTNGRTNYYEKFKNRATLTADKSSSTAYMQLSSLTFEDSAVYFCAKFHYSRWYFDVWGTGTTVTVSS VL: DIVMTQSQKFMSTSVGDRVSITCKASQNVGTAVVWYQQKPGQSPKLLINPASNRYTGVPDRFTGSGSGTDFTLTISNMQSEDLADYFCQQYSSYPLTFGAGTKLELK	0.0679 nM	1.65 nM	0.000155 s⁻¹	94100 M⁻¹ s⁻¹	1.08 nM	0.00012 s⁻¹	112000 M⁻¹ s⁻¹	0.323 nM	–
mouse anti-IL6R monoclonal antibody 1D4 (antibody, V domains shown, Mouse hybridoma mAb) VH: QVQLQQPGAELVKPGASVKLSCKASGYTFTSYWMHWVKVRPGQGLEWIGEINPTNGRTNYNEDFKSKATLTVNSSSSTAYMQLSSLTSEDSAVYYCARLNTHYVFDYWGQGTTLTVSS VL: EIVLTQSPTILAASPGEKITFTCSVSSSISSNYLHWYQQKPGFSPKLLIYRTSNLASGVPARFSGSGSGTSYSLTIGTMEAEDVATYYCQQGSGIPFTFGSGTKLEIK	0.0558 nM	0.6 nM	7.39e-05 s⁻¹	123000 M⁻¹ s⁻¹	0.628 nM	8.64e-05 s⁻¹	138000 M⁻¹ s⁻¹	–	–
mouse anti-IL6R monoclonal antibody 1B5 (antibody, V domains shown, Mouse hybridoma mAb) VH: QVQLQQPGAELVKPGASVKLSCKASGYTFTSYWMHWVKQRPGQGLEWIGEINPSNGRTNYNENFKSKATLTVDKSSSTAYMQLSSLTSEDSAVYYCARLNTHYVFDYWGQGTTLTVSS VL: EIVLTQSPTILAASPGEKITFTCSVSSSISSNYLHWYQQKPGFSPKLLIYRTSNLASGVPARFSGSGSGTSYSLTIGTMEAEDVATYYCQQGSGIPFTFGSGTKLEIK	0.0372 nM	0.609 nM	7.86e-05 s⁻¹	129000 M⁻¹ s⁻¹	0.476 nM	6.7e-05 s⁻¹	141000 M⁻¹ s⁻¹	–	–
mouse anti-IL6R monoclonal antibody 1G1 (antibody, V domains shown, Mouse hybridoma mAb) VH: QVQLQQPGAELVKPGASVKLSCKASGYTFTSYWMHWVKVRPGQGLEWIGEINPTNGRTNYNEDFKSKATLTVESSSSTAYMQFSSLTSEDSAVYYCARLNTHYVFDYWGQGTTLTVSS VL: EIVLTQSPTILAASPGEKITFTCSVSSSISSNYLHWYQQKPGFSPKLLIYRTSNLASGVPARFSGSGSGTSYSLTIGTMEAEDVATYYCQQGSGIPFTFGSGTKLEIK	0.085 nM	0.736 nM	8.85e-05 s⁻¹	120000 M⁻¹ s⁻¹	0.647 nM	9.09e-05 s⁻¹	141000 M⁻¹ s⁻¹	–	~1.44 nM
mouse anti-IL6R monoclonal antibody 3C2 (antibody, V domains shown, Mouse hybridoma mAb) VH: QVQLQQPGTELVKPGASVKLSCKASGYTFTTYWIHWVKQRPGQGLEWIGEINPSNGRTNYNEHFKSKATLTVDKSSSTASMQLSSLTSADSAVYYCARLNTHYVFDSWGQGTTLTVSS VL: EIVLTQSPTTMAASPGEKITITCSASSSISSNYLHWYQQKPGFSPKLLIYRTSNLASGVPTHFSGSGSGTSYSLTIGTMEAEDVATYYCQQGSGIPFTFGSGTKLEIK	0.0536 nM	0.977 nM	0.000127 s⁻¹	130000 M⁻¹ s⁻¹	0.911 nM	0.000135 s⁻¹	148000 M⁻¹ s⁻¹	–	0.704 nM
mouse anti-IL6R monoclonal antibody 1A3 (antibody, V domains shown, Mouse hybridoma mAb purified on Protein A) VH: QVQLQQPGAELVKPGASVKLSCKASGYTFTSYWMHWVKQRPAQGLEWIGEINPSNGRTNFNEKFKTKATLTVDKSSNTAYMQLSSLTSEDSAVYSCLRLNTHYVFDYWGQGTTLTVSS VL: EIVLTQSPTTMAASPGEKITITCSASSSISSNYLHWYQQKPGFSPKLLISRTSNLASGVPTRFSGSGSGTSYSLTIGTMEAGDVATYYCQQGSGIPFTFGSGTKLEIK	0.073 nM	0.328 nM	4.54e-05 s⁻¹	139000 M⁻¹ s⁻¹	0.293 nM	4.32e-05 s⁻¹	148000 M⁻¹ s⁻¹	–	–
